Patent publication US20240425569A1 (VISTERRA, published 2024)

B1: B48+V2L (antibody, V domains shown)
VH: QLQLVQSGAEVKKPGASVKVSCKAGFNIKDTYMSWVRQAPEQGLEWMGRIDPENGDTKYDPKLQGRVTMTADTSTNTAYMELRSLRSDDTAVYYCARGWEGFAYWGQGTLVTVSS
VL: DIVMTQSPASLAVSLGERATISCRASENVDKYGNSFMHWYQQKPGQPPKLLIYRASELQWGVPDRFSGSGSGTDFTLTISSLQAEDVAVYYCQRSNEVPWTFGQGTKLEIK
B2: C41 (antibody, V domains shown)
VH: VKLLEQSGAELVKPGASVRLSCTASGFNIKDVYMSWVKQRPEQGLEWIGRIDPENGDTKYDPKFQGKATITADTSSNTAYLHLSSLTSGDTAVYYCSRGWEGFAYWGQGTLVTVSA
VL: ELVMTQTPASLAVSLGQRATISCRASENVDKYGNSFMHWYQQKAGQPPKLLIYRASELQWGIPARFSGSGSRTDFTLTINPVEADDVATYFCQRSNEVPWTFGGGTKLEIK
B3: A48+V2L (antibody, V domains shown)
VH: QLQLVQSGAEVKKPGASVKVSCKASGFNIKDVYMSWVRQAPEQGLEWMGRIDPENGDTKYDPKLQGRVTMTADTSTNTAYMELRSLRSDDTAVYYCARGWEGFAYWGQGTLVTVSS
VL: DIVMTQSPASLAVSLGERATISCRASENVDKYGNSFMHWYQQKPGQPPKLLIYRASELQWGVPDRFSGSGSGTDFTLTISSLQAEDVAVYYCQRSNEVPWTFGQGTKLEIK
B4: A48+InsE6 (antibody, V domains shown)
VH: VQLVEQSGAEVKKPGASVKVSCKASGFNIKDVYMSWVRQAPEQGLEWMGRIDPENGDTKYDPKLQGRVTMTADTSTNTAYMELRSLRSDDTAVYYCARGWEGFAYWGQGTLVTVSS
VL: DIVMTQSPASLAVSLGERATISCRASENVDKYGNSFMHWYQQKPGQPPKLLIYRASELQWGVPDRFSGSGSGTDFTLTISSLQAEDVAVYYCQRSNEVPWTFGQGTKLEIK
B5: B48+InsE6 (antibody, V domains shown)
VH: VQLVEQSGAEVKKPGASVKVSCKAGFNIKDTYMSWVRQAPEQGLEWMGRIDPENGDTKYDPKLQGRVTMTADTSTNTAYMELRSLRSDDTAVYYCARGWEGFAYWGQGTLVTVSS
VL: DIVMTQSPASLAVSLGERATISCRASENVDKYGNSFMHWYQQKPGQPPKLLIYRASELQWGVPDRFSGSGSGTDFTLTISSLQAEDVAVYYCQRSNEVPWTFGQGTKLEIK
B6: D168 (antibody, V domains shown)
VH: QVQLVQSGAEVKKPGASVKVSCKASGYNIKDVYMSWVRQAPEQGLEWMGRIDPENGDTKYDPKLQGRVTMTADTSTNTAYMELRSLRSDDTAVYYCARGWEGFAYWGQGTLVTVSS
VL: DIVMTQSPASLAVSLGERATISCRASENVDKYGNSFMHWYQQKPGQPPKLLIYRASELQWGVPDRFSGSGSGTDFTLTISSLQAEDVAVYYCQRSNEVPWTFGQGTKLEIK
B7: antibody D108 (antibody, V domains shown)
VH: QVQLVQSGAEVKKPGASVKVSCKASYWNIKDVYMSWVRQAPEQGLEWMGRIDPENGDTKYDPKLQGRVTMTADTSTNTAYMELRSLRSDDTAVYYCARGWEGFAYWGQGTLVTVSS
VL: DIVMTQSPASLAVSLGERATISCRASENVDKYGNSFMHWYQQKPGQPPKLLIYRASELQWGVPDRFSGSGSGTDFTLTISSLQAEDVAVYYCQRSNEVPWTFGQGTKLEIK
B8: antibody D128 (antibody, V domains shown)
VH: QVQLVQSGAEVKKPGASVKVSCKASAWNIKDVYMSWVRQAPEQGLEWMGRIDPENGDTKYDPKLQGRVTMTADTSTNTAYMELRSLRSDDTAVYYCARGWEGFAYWGQGTLVTVSS
VL: DIVMTQSPASLAVSLGERATISCRASENVDKYGNSFMHWYQQKPGQPPKLLIYRASELQWGVPDRFSGSGSGTDFTLTISSLQAEDVAVYYCQRSNEVPWTFGQGTKLEIK
B9: antibody D148 (antibody, V domains shown)
VH: QVQLVQSGAEVKKPGASVKVSCKASYFNIKDVYMSWVRQAPEQGLEWMGRIDPENGDTKYDPKLQGRVTMTADTSTNTAYMELRSLRSDDTAVYYCARGWEGFAYWGQGTLVTVSS
VL: DIVMTQSPASLAVSLGERATISCRASENVDKYGNSFMHWYQQKPGQPPKLLIYRASELQWGVPDRFSGSGSGTDFTLTISSLQAEDVAVYYCQRSNEVPWTFGQGTKLEIK

molecular target: T1, EDIII-DV4 (E protein domain III of dengue virus serotype DV-4) (dengue virus serotype DV-4, UniProt P09866 572-679)
T1 construct: also called DENV-4
T1 sequence (P09866 572-679, tags left off): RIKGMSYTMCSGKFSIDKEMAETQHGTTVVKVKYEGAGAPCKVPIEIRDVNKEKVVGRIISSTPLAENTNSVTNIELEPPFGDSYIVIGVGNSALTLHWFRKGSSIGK

Question: B1 was tested. Which Kd did it give?
Answer: 23.6 nM

Question: B2 was tested. Which Kd did it give?
Answer: 2.56 nM

Question: How did the Kd turn out when B3 was run?
Answer: 21.3 nM

Question: For B4, which Kd is on record?
Answer: 19.5 nM

Question: For B5, which Kd is on record?
Answer: 26.9 nM

molecular target: T1, EDIII-DV4 (E protein domain III of …); remark: another data set of the same source

Question: With B6 as the binder, how does the Kd read?
Answer: 324 nM

Question: How did the Kd turn out when B7 was run?
Answer: 18.3 nM

Question: How did the Kd turn out when B8 was run?
Answer: 20.8 nM

Question: For B9, which Kd is on record?
Answer: 18 nM
